Results on 6 molecules are retold here after article PMC11535027, “Structural basis of substrate recognition and allosteric activation of the proapoptotic mitochondrial HtrA2 protease” (Nature Communications, 2024).

B3: isolated HtrA2-PDZ domain (residues 349–458) (domain or fragment, human, UniProt O43464 349-458, looked up)
chain: NSSSGISGSQRRYIGVMMLTLSPSILAELQLREPSFPDVQHGVLIHKVILGSPAHRAGLRPGDVILAIGEQMVQNAEDVYEAVRTQSQLAVQIRRGRETLTLYVTPEVTE
notes: HtrA2 (Omi), human mitochondrial serine protease, carboxy-terminal PDZ domain, residues 349-458 of the full-length protein of 458 residues; Constructs were either amino-terminally SUMO-His6-tagged (pET28b; tag removed with SENP1) or carboxy-terminally His6-tagged (pET21b); Isotope-labelled for NMR; also called ALVIT-PDZ; source: E. coli BL21 (λDE3), purified (Ni2+-HisTrap, gel filtration)

Data set [1] deals with the molecule itself. The data set can be described thus: SEC-MALS; HtrA2^S306A loaded at 4-7.5 mg/ml, Superdex Increase 200 10/300 GL, HBS pH 7.4, RT (~297 K), no added metal ions; trimer to hexamer (fitted with the monomer-dimer equation); KD given as a lower limit. Background: SEC sorts molecules by how far they enter the pores of the column.
Data set [2] deals with the molecule itself. The data set can be described thus: SEC-MALS; HtrA2^S306A loaded at 5-7.5 mg/ml, Superdex Increase 200 10/300 GL, HBS pH 7.4, RT (~297 K), with 25 mM CaCl2; trimer to hexamer (fitted with the monomer-dimer equation); KD given as a lower limit.
Data set [3] concerns the molecule itself. The data set can be described thus: SEC-MALS; HtrA2-PDZ loaded at 100-800 µM, Superdex Increase 200 10/300 GL, HBS (20 mM HEPES, 150 mM NaCl) pH 7.4, RT (~297 K), with Mg2+ (+MgCl2 in the figure, MgSO4 in Supplementary Table 1); monomer to dimer; KD given as a lower limit.
Data set [4] concerns the molecule itself. The data set can be described thus: SEC-MALS; HtrA2-PDZ loaded at 100-800 µM, Superdex Increase 200 10/300 GL, HBS (20 mM HEPES, 150 mM NaCl) pH 7.4, RT (~297 K), with ZnSO4; monomer to dimer; KD given as a lower limit.
Data set [5] concerns the molecule itself. The data set can be described thus: SEC-MALS; HtrA2-PDZ loaded at 100-800 µM, Superdex Increase 200 10/300 GL, HBS (20 mM HEPES, 150 mM NaCl) pH 7.4, RT (~297 K), with CuCl2; monomer to dimer; KD given as a lower limit.
Data set [6] deals with the molecule itself. The data set can be described thus: SEC-MALS; HtrA2-PDZ loaded at 100-800 µM, Superdex Increase 200 10/300 GL, HBS (20 mM HEPES, 150 mM NaCl) pH 7.4, RT (~297 K), with CaCl2; monomer to dimer; KD given as a lower limit.
Data set [7] concerns the molecule itself. The data set can be described thus: SEC-MALS; HtrA2-PDZ in HBS (20 mM HEPES, 150 mM NaCl) pH 7.4 supplemented with Zn2+, compared with the non-supplemented buffer; dimer to monomers.
Data set [8] concerns the molecule itself. The data set can be described thus: SEC-MALS; HtrA2-PDZ at a range of concentrations, Superdex Increase 200 10/300 GL, PBS pH 7.4, RT (~297 K); KD fitted assuming a fast monomer-dimer equilibrium; dimer to monomers; lower limit because the concentration range was limited by solubility.
Data set [9] deals with the molecule itself. The data set can be described thus: SEC-MALS; HtrA2-PDZ in the presence of the activating peptide DD-PDZOpt; dimer to monomers.
Data set [10] addresses T1, wild-type mature human HtrA2 (human).
T1 construct: made from the S306A construct that the methods name HtrA2^133–458; also called wild-type HtrA2; Omi; source: E. coli BL21 (λDE3), purified (Ni-HisTrap, gel filtration)
T1 chain: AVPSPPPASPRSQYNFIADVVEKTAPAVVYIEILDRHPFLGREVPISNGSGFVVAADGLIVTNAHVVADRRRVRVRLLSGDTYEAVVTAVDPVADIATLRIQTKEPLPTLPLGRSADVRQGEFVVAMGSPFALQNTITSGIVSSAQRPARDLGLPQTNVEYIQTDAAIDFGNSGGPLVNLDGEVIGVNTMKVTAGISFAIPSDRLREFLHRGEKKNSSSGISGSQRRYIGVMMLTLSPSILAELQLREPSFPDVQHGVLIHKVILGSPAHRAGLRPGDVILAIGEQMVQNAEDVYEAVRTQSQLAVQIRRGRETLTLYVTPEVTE
The data set can be described thus: fluorescence cleavage assay (cleavage rate of H2Opt against DD-PDZOpt concentration, one-site binding model); apparent; 510 nM wild-type HtrA2 (monomeric concentration), 20 µM H2Opt, DD-PDZOpt varied, 20 mM HEPES pH 7.4, no EDTA, 2 mM MgSO4, 313 K. The following applies: both partners purified.

The target of data set [11] is T1, wild-type mature human HtrA2. The data set can be described thus: fluorescence cleavage assay (cleavage rate of H2Opt against DD-PDZOpt concentration, one-site binding model); apparent; 510 nM wild-type HtrA2 (monomeric concentration), 20 µM H2Opt, DD-PDZOpt varied, 20 mM HEPES pH 7.4, no EDTA, 2 mM CaCl2, 313 K. To be noted: both partners purified.
For data set [12] the target is unchanged. The data set can be described thus: fluorescence cleavage assay (cleavage rate of H2Opt against DD-PDZOpt concentration, one-site binding model); apparent; 510 nM wild-type HtrA2 (monomeric concentration), 20 µM H2Opt, DD-PDZOpt varied, 20 mM HEPES pH 7.4, 1 mM EDTA, 313 K; no additive. The following applies: both partners purified.
Data set [13] concerns the target B3. The data set can be described thus: NMR titration; DD-PDZOpt titrated to HtrA2-PDZ, 2D [15N,1H] and 2D [13C,1H] spectra (ALVIT methyl-labelled PDZ); line-shape analysis with TITAN, two-state ligand binding model; 298 K. The following applies: both partners purified.
Data set [14] concerns the target T2, wild-type mature HtrA2 (human, UniProt O43464 134-458).
T2 sequence (looked up): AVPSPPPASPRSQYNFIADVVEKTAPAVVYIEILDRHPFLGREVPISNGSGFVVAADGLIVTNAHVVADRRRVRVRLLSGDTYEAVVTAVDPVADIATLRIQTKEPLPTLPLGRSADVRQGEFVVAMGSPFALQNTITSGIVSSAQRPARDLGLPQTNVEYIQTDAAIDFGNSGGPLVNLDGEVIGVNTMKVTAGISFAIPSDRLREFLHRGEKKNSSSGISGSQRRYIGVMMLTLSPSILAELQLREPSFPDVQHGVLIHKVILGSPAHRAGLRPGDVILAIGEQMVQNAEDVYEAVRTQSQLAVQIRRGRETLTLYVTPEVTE
The data set can be described thus: cell-based or functional assay.

Data set [15] concerns the molecule itself. The data set can be described thus: SEC-MALS; HtrA2^S306A at increasing concentrations in HBS pH 7.4 without divalent ions; multimerization KD fitted assuming a fast monomer-dimer equilibrium.

B1: full-length mature human HtrA2 without the active site serine (S306A) (enzyme, UniProt O43464 134-458, looked up)
chain: AVPSPPPASPRSQYNFIADVVEKTAPAVVYIEILDRHPFLGREVPISNGSGFVVAADGLIVTNAHVVADRRRVRVRLLSGDTYEAVVTAVDPVADIATLRIQTKEPLPTLPLGRSADVRQGEFVVAMGSPFALQNTITSGIVSSAQRPARDLGLPQTNVEYIQTDAAIDFGNAGGPLVNLDGEVIGVNTMKVTAGISFAIPSDRLREFLHRGEKKNSSSGISGSQRRYIGVMMLTLSPSILAELQLREPSFPDVQHGVLIHKVILGSPAHRAGLRPGDVILAIGEQMVQNAEDVYEAVRTQSQLAVQIRRGRETLTLYVTPEVTE
notes: human HtrA2 (Omi), mature form; the methods name the construct HtrA2^133–458; the SEC-MALS constants are of the trimer to hexamer step; also called HtrA2^S306A; MALVI^proS-HtrA2^S306A; source: E. coli BL21 (λDE3), purified (Ni-HisTrap, gel filtration)
As to B1, the Kd in [1] was ≥ 960 µM; in [2] it was ≥ 490 µM.

B2: isolated HtrA2-PDZ domain (residues 349–458) (domain or fragment, human)
chain: NSSSGISGSQRRYIGVMMLTLSPSILAELQLREPSFPDVQHGVLIHKVILGSPAHRAGLRPGDVILAIGEQMVQNAEDVYEAVRTQSQLAVQIRRGRETLTLYVTPEVTE
notes: human HtrA2 (Omi), PDZ domain, residues 349-458; also called HtrA2^349-458; ALVIT-PDZ; source: E. coli BL21 (λDE3), purified (Ni-HisTrap, SENP1 cleavage, gel filtration); not shown: 6xHis-SUMO, N-terminal, cleaved
In the case of B2, the Kd in [3] was ≥ 3.52 mM; in data set [4], ≥ 250 µM; in data set [5] it was ≥ 4.16 mM; in data set [6], ≥ 9.2 mM.

Consider B3, for which the “fold increase of the propensity to dimerize with Zn2+ against the non-supplemented buffer” value in data set [7] was ~50 fold. Also, the results for the Kd in data set [8] and in data set [9] were ≥ 13 mM and 10.3 ± 2.5 mM, respectively.

B4: DD-PDZOpt activating peptide (peptide)
peptide: DDGQYYFV
notes: source: synthetic peptide, bought: GenScript
Take B4: the Kd in data set [10] amounted to 11.9 µM; in data set [11] it was 1530 nM; in data set [12], 27.9 µM.

B5: DD-PDZOpt activating peptide (peptide)
peptide: DDGQYYFV
notes: as for B4
B5 gave a Kd in data set [13] of 3.18 ± 0.9 µM. Moreover, the “apparent K_(D,app) of DD-PDZOpt from the H2Opt cleavage rate, with 2 mM Mg2+, as percent of that in standard assay buffer” value in data set [14] is ~50%.

B6: full-length mature human HtrA2^133–458 S306A (enzyme, UniProt O43464 133-458, looked up)
chain: AAVPSPPPASPRSQYNFIADVVEKTAPAVVYIEILDRHPFLGREVPISNGSGFVVAADGLIVTNAHVVADRRRVRVRLLSGDTYEAVVTAVDPVADIATLRIQTKEPLPTLPLGRSADVRQGEFVVAMGSPFALQNTITSGIVSSAQRPARDLGLPQTNVEYIQTDAAIDFGNAGGPLVNLDGEVIGVNTMKVTAGISFAIPSDRLREFLHRGEKKNSSSGISGSQRRYIGVMMLTLSPSILAELQLREPSFPDVQHGVLIHKVILGSPAHRAGLRPGDVILAIGEQMVQNAEDVYEAVRTQSQLAVQIRRGRETLTLYVTPEVTE
notes: HtrA2 (Omi), human, mature form, residues 133-458 of the full-length protein of 458 residues, active site serine replaced (S306A); The purchased construct is named pET21b-HtrA2, and pET21b constructs are said to be carboxy-terminally His6-tagged; The purification text also describes removal of a SUMO-His6 tag; The introduction says that the mature protein lacks the 133 amino-terminal residues, …
On to B6, for which the Kd in data set [15] fell in the range of 500 to 1000 µM.
